Source: paper PMC3689916, “Vaspin inhibits kallikrein 7 by serpin mechanism” (Cellular and Molecular Life Sciences: CMLS, 2013)

Molecular target: T1, recombinant human vaspin (visceral adipose tissue-derived serpin; serpinA12), 10×His fusion protein (human, UniProt Q8IW75 22-414)
T1 construct: the crystal structure model covers residues 37-366 and 378-414 (chain A); The natural signal peptide is probably absent from the construct; also called native human vaspin; 10×His–vaspin
T1 sequence: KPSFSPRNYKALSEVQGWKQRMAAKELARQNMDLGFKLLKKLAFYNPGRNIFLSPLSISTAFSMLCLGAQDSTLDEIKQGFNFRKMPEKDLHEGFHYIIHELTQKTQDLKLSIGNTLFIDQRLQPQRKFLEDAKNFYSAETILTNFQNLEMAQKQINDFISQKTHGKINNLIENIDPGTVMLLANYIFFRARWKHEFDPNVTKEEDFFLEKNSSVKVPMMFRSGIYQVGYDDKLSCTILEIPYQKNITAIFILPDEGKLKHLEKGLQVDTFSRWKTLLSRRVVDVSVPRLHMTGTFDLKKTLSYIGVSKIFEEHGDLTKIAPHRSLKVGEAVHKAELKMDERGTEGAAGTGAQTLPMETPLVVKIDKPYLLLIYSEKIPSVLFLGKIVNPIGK
Experiment: protease activity assay, association rate under pseudo-first-order conditions (residual activity, fluorogenic peptide substrate); tenfold molar excess of vaspin over hK7; remaining hK7 activity against time; k ass = k obs/[I] from a linear fit of ln activity against time
Settings: both partners purified

B1: recombinant human kallikrein 7 (hK7) (enzyme, UniProt P49862 23-253, looked up)
chain: IIDGAPCARGSHPWQVALLSGNQLHCGGVLVNERWVLTAAHCKMNEYTVHLGSDTLGDRRAQRIKASKSFRHPGYSTQTHVNDLMLVKLNSQARLSSMVKKVRLPSRCEPPGTTCTVSGWGTTTSPDVTFPSDLMCVDVKLISPQDCTKVYKDLLENSMLCAGIPDSKKNACNGDSGGPLVCRGTLQGLVSWGTFPCGQPNDPGVYTQVCKFTKWINDTMKKHR
notes: source: bought: R&D Systems
B1 showed a kon of 7300 M⁻¹ s⁻¹.
